Test system: MS2 coat protein
Assay: apparent KD of MS2 coat protein; designed switch direction (-1 OFF switch, 1 ON switch): -1; higher = weaker reporter binding
How it was run: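 For each design, the apparent KD is the median over clusters of curves fitted to normalised cluster fluorescence. Clusters held RNA switches with common flanks, transcribed on Illumina chips by stalled E. coli RNA polymerase. These were titrated with SNAP-549-labelled MS2 coat protein, doubling from 0.7 or 1.5 nM to 3 µM, without input, with 200 uM small-molecule ligand, or with an oligonucleotide input.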

[1] = Eterna round: R95, input ligand: FMN 200 uM
[2] = Eterna round: R95, input ligand: microRNA oligo, concentration not stated
[3] = Eterna round: R95, input ligand: none
[4] = input ligand: microRNA oligo, concentration not stated

Row | Sequence | apparent KD of MS2 coat protein [1] | apparent KD of MS2 coat protein [2] | apparent KD of MS2 coat protein [3] | apparent KD of MS2 coat protein (input ligand: FMN 200 uM) | apparent KD of MS2 coat protein (input ligand: none) | apparent KD of MS2 coat protein [4]
1 | UAUUAACAAGCAAGGUCCCACAUGAGGAUCACCCAUGUGCUCGUCUUAUAAGGUACUGUGACGAAAGUCACGGUACC [Sensor 3, v1 - 81] (puzzle: Sensor v3, turn-off variant 1) | 32.4 nM | 469 nM | 33.6 nM |  |  | 
2 | UAUUAAGCAAGCAGAUCCCACAUGAGGAUCACCCAUGUGCUCGUCUUAUAAGGUACUGUGACGAAAGUCACGGUACC [Sensor 3, v1 - 91 v12] (Eterna round: R97, puzzle: Sensor, turn-off variant 1) |  |  |  | 126 nM | 156 nM | 
3 | UAUUACUCAGGAUAUAUGAUGUGAAACAUGAGGAUCACCCAUGUAAUAUUAUGGAUGUAAAUAGAAGGGAGAUAAU [Mat - Exclusion 5 - JL mod - D21] (puzzle: Exclusion 5) | 37.1 nM | 51.1 nM | 56.9 nM |  |  | 
4 | UAUUAGCAAGCAAGAUCCUACAUGAGGAUCACCCAUGUGCUCGUCUUAAACUCAGAAUUACUGAGAGCUCGUCUUAU [Winner reversed engineered 24] (Eterna round: R97, puzzle: Sensor, turn-off variant 1) |  |  |  | 443 nM | 515 nM | 
5 | UAUUAGCAAGCCAGAUCCCACAUGAGGAUCACCCAUGUGCUCGUCUUAUAAGGUACUGUGACGAAAGUCACGGUACC [Sensor 3, v1 - 93] (puzzle: Sensor v3, turn-off variant 1) | 137 nM | 1120 nM | 184 nM |  |  | 
6 | UAUUAGCAAGCGAGAUCCCACAUGAGGAUCACCCAUGUAAAAGCAUCCAGAAUUACUGGGUGCAAAGCUCGUCUUAU [Winner reversed engineered 7] (Eterna round: R97, puzzle: Sensor, turn-off variant 1) |  |  |  | 30.1 nM | 24.8 nM | 
7 | UAUUAGCAAGCGAGAUCCCACAUGAGGAUCACCCAUGUAAAGCAUCCAGAAUUACUGGGUGCAAAAGCUCGUCUUUA [Winner reversed engineered 5] (Eterna round: R97, puzzle: Sensor, turn-off variant 1) |  |  |  | 28.7 nM | 40 nM | 
8 | UAUUAGCAAGCGAGAUCCCACAUGAGGAUCACCCAUGUGCUCGUCUUAUAAAGUACUGUGACGAAAGUCACGGUACU [Mat - Sensor, turn-off var - Eli Mod - D7] (Eterna round: R97, puzzle: Sensor, turn-off variant 1) |  |  |  | 15.2 nM | 14.6 nM | 
9 | UAUUAGCAAGCGAGAUCCCACAUGAGGAUCACCCAUGUGCUCGUCUUAUAAAGUACUGUGACGAUAGUCACGGUACA [Mat - Sensor, turn-off var - Eli Mod - D8] (Eterna round: R97, puzzle: Sensor, turn-off variant 1) |  |  |  | 16.6 nM | 15.6 nM | 
10 | UAUUAGCAAGUAAGAUCCCACAUGAGGAUCACCCAUGUGCUCGUCAUAUCAGGUACUGUGAGGAAACUCACGGUACG [Sensor-V1 #86] (Eterna round: R97, puzzle: Sensor, turn-off variant 1) |  |  |  | 127 nM | 169 nM | 
11 | UAUUAGCAAGUGAGAUCCGACAUGAGGAUCACCCAUGUGCUCGUCUUAUAAGGUAAUAUGACAAAAGUCAUAUUACC [Elimod 5 - Jieux - Sensor, turn-off variant 1] (Eterna round: R97, puzzle: Sensor, turn-off variant 1) |  |  |  | 301 nM | 293 nM | 
12 | UAUUAGUAAGGAUAUCCCACGUAGGACUUCGGUCCUACGUGGGAGAAGGUACAUGAGGAUCACCCAUGUCUAUU [Mod of Fisker 13 - Jieux - Exclusion 4] (Eterna round: R97, puzzle: Exclusion 4) |  |  |  | 16.6 nM | 14.9 nM | 
13 | UAUUAGUAAGGAUAUGCGACGUAGGACGAAAGUCCUACGUCGCAGAAGGUACAUGAGGAUCACCCAUGUCUAUU [Mod of Fisker 11 - Jieux - Exclusion 4] (Eterna round: R97, puzzle: Exclusion 4) |  |  |  | 20.5 nM | 18.7 nM | 
14 | UAUUAUCAAGCAAGAUCCUACAUGAGGAUCACCCAUGUGCUCGUCUUAUAAGGUACUGUGACGAAAGUCACGGUACC [Sensor 3, v1 - 73] (puzzle: Sensor v3, turn-off variant 1) | 107 nM | 107 nM | 153 nM |  |  | 
15 | UAUUAUCAAGUAAGAUCCUACAUGAGGAUCACCCAUGUGCUCGUCUUAUAAGGUACUGUGACGAAAGUCACGGUACC [Sensor 3, v1 - 74] (puzzle: Sensor v3, turn-off variant 1) | 31.3 nM | 332 nM | 33.8 nM |  |  | 
16 | UAUUCGCAAGCAAAUGGGUACAUGAGGAUCACCCAUGUGCUCGUCUUAUAAGGUACUGUGACGAAAGUCACGGUACC [mod--Eli9] (Eterna round: R97, puzzle: Sensor, turn-off variant 1) |  |  |  | 20.9 nM | 20.3 nM | 
17 | UAUUGUAGACAGGAUAUCUAUCGGGUAACCCGAAGAGAAGGGUCUACAUGAGGAUCACCCAUGUGGCCCGUUUU [EX6 B.29] (Eterna round: R97, puzzle: Exclusion 6) |  |  |  | 42 nM | 21.5 nM | 
18 | UAUUUAAGAGGAUAUACAUGAGGAUCACCCAUGUAUAUUAAAAUACAUGAUUUUUUAUGUAGAAGGCUUGGGUA [-21.5, -18.3 kcal, 35% A] (Eterna round: R97, puzzle: Exclusion 3) |  |  |  | 23.6 nM | 16.9 nM | 
19 | UAUUUACGAGGAUAUCGUUUUUUUCACAUGAGGAUCACCCAUGUUGUUUAUGUUGCGUUGCGAGAAGGCGUUUGUU [JR_E5_Sub062] (puzzle: Exclusion 5) |  | 26.6 nM |  |  |  | 
20 | UAUUUAGCAAGCAGAUCCUACAUGAGGAUCACCCAUGUGCUCUGAAAUAACGCAGAAUUACUGCGAGCUCGUCUUAU [Winner reversed engineered 27] (Eterna round: R97, puzzle: Sensor, turn-off variant 1) |  |  |  | 85.7 nM | 120 nM | 
21 | UAUUUAUAGCAAGGAUAUGAUUAUUAUUAUUUAUCAGAAGGUGCACAUGAGGAUCACCCAUGUUUUACAAUUUGUAAUUUAAUU [Default title] (Eterna round: R96, puzzle: Exclusion NG 1) |  |  |  |  |  | 31.1 nM
22 | UAUUUAUAUGAAGGAUAUACUUAACAUGAGGAUCACCCAUGUGGUGUUGUGAGUGAGUGAGUUUAGUAGAAGGUCAAUUAUUUU [JMF's solution 30] (Eterna round: R96, puzzle: Exclusion NG 2) |  |  |  | 282 nM | 222 nM | 131 nM
23 | UAUUUGCAAGCGAGAUCCCACAUGAGGAUCACCCAUGUGCUCGUCUUAUAAGGUACUGUGACGAGAGUCACGGUACC [Mat - Sensor, turn-off var - Eli Mod - D90] (Eterna round: R97, puzzle: Sensor, turn-off variant 1) |  |  |  | 15 nM | 15.6 nM | 
24 | UAUUUGCAAGGAUAUGAUUUAAGUAACAUGAGGAUCACCCAUGUUUUUCCGUUGUUAUGUUCAGAAGGUGCGUGAU [JR_E5_Sub020] (puzzle: Exclusion 5) |  | 50.9 nM |  |  |  | 
25 | UCAACGCAAGGAUAUACUUGCGGUGAUGUUCGAAUUCUUCUACUUGAGGAUCACCCAAGUAGAAGGUGCGGUGA [jl-ex2.4.64 ViennaUCT mod] (Eterna round: R97, puzzle: Exclusion 2) |  |  |  | 14 nM | 13.1 nM | 
26 | UCAAGUAUGUAGGAUAUGAUGUGAUUCUACAUAUCAGAAGGACGUACAUGAGGAUCACCCAUGUAACUUGCAUG [Exclusion 6 - B - 12:d] (puzzle: Exclusion 6) | 96.2 nM | 33.1 nM | 32 nM |  |  | 
27 | UCAAUUAUGACAGGAUAUAGUUUUUGUUUUUCUCUAGAAGGGUCUAUGCACAUGAGGAUCACCCAUGUUCUUUUUAUUUGCAUU [JR_ExcNG1_Sub016] (Eterna round: R96, puzzle: Exclusion NG 1) |  |  |  | 47.5 nM | 70.9 nM | 46.1 nM
28 | UCACAGUUAGGAUAUGCGAGUUUGGUGUGCAUCCUAGACAUACAUGAGGAUCACCCAUGUAGAAGGAAUAGUGG [Eternabot (L2) Solution 80] (Eterna round: R97, puzzle: Exclusion 2) |  |  |  | 34.5 nM | 27.1 nM | 
29 | UCACCGCAAGGAUAUACUUGCGGUGAUGCUCGAAAUCUUCUACUUGAGGAUCACCCAAGUAGAAGGUGCGGUGA [jl-ex2.4.67 ViennaUCT mod] (Eterna round: R97, puzzle: Exclusion 2) |  |  |  | 13 nM | 12.1 nM | 
